Results: paper PMC12428139, “The Functional State of Thermoplasma acidophilum Pyruvate Kinase Relies on an Extra Carboxyl-Terminal Sequence” (International Journal of Molecular Sciences, 2025)
Several values for one entry are separate records, joined by “and”; a condition that tells them apart may be missing. Equal entries are not always repeated. Where two headings read alike, the source gives them in different places.

Assays:
[1] = molecular target: ECTS truncated-ThaPK (Thermoplasma acidophilum pyruvate kinase lacking the extra C-terminal sequence) (Thermoplasma acidophilum) (UniProt P32044); assay: native gel or EMSA; 1D Blue Native PAGE, linear 4-18% acrylamide gradient, 4 °C, 50 µg protein per well; bands excised and resolved by 2D SDS-PAGE; masses from regression on standards, triplicate gels
WT-ThaPK = molecular target: T1, WT-ThaPK (Thermoplasma acidophilum, UniProt P32044); assay: LDH/NADH coupled assay, dead-end inhibition, global fit; type: biochemical
T1 construct: gene Ta0896; full length (1635 bp gene, 544 residues), N-terminal His6 tag and thrombin site (20 residues) kept, pET15b, E. coli BL21(DE3) Codon Plus-RIL
Excerpt: LDH/NADH coupled assay, dead-end inhibition, global fit on WT-ThaPK

[2] = molecular target: the molecule itself; assay: SEC; Superdex 200 (10/300), 50 mM HEPES pH 7.5, 150 mM NaCl, 500 µg of enzyme loaded, calibrated with BIORAD gel filtration standards

**Q.** “ECTS truncated-ThaPK (Thermoplasma acidophilum pyruvate kinase lacking the extra C-terminal sequence) (from UniProt P32044 1-450) (domain or fragment)” was tested. Which stoichiometry N [1] did it give?
**A.** 2 and 3

**Q.** `O=C(O)C(=O)O` [oxalate] was tested. Which Ki (WT-ThaPK; read-out: Ki (Oxalate)) did it give?
**A.** 0.044 ± 0.001 mM

**Q.** How did the Ki (WT-ThaPK; read-out: Ki (AMP)) turn out when `Nc1ncnc2c1ncn2[C@@H]1O[C@H](COP(=O)(O)O)[C@@H](O)[C@H]1O` [AMP] was run?
**A.** 3.3 ± 0.3 mM

B1: Thermoplasma acidophilum pyruvate kinase, wild type (WT-ThaPK) (enzyme, UniProt P32044 1-544, looked up)
chain: MKTKIVATIGPASSSPEIMKQMIDNGLSLVRINSAHADIKDVSKITQMVRSINRDVGIMIDLKGPELRTGEFAGGTLKISSGKDYVMGKDIVLNNMNVLSAVQVGDRILMSDGEVSFEVESTDPFTIRALNDGVLRDRSRVNIPGRFIELGTITDRDRAFIREGIADGVDFFALSFVQKSENVDSLRDFVIDSGGDQYIISKIETKSGLDNIEEIVKSSDGIMVARGDLGVELPLKEVVLAQKHIIKTAHEDGDFTIVATQVLESMVNNSSPTRAEISDITNAIIDNADALMLSEESAIGKYPVQAVRTLKEVSDYVEDKVSFDSSYYFKGNTIAYSVARAAKILSDDIKSDGIVALTHTGSTVRMISSLRPKAMVYAATVSESLARKLNIYFGVLPLHMEGNAEDLSFSEIMEYIVRSGRFADGSKLVMTSGDPYFTFGGTNDVKVAVVGKFIGRGYSFGDSLSGTATYGTKGDILMSEDGRIPGTDFRAFIFTSDIKPSLMSSLKGKTVVTKARLVRQIKEGERIYIDGNTGIILMASPDQK
notes: pyruvate kinase of Thermoplasma acidophilum; synthetic gene of 1635 bp cloned NdeI/BamHI in pET15b; last residue K544; monomer 59,147.48 Da plus 20 extra residues (His6 tag and thrombin site, 2193.26 Da) that thrombin could not cleave; The 20 additional N-terminal residues from pET15b (His6 tag and thrombin cleavage site) stayed on the protein in all experiments; also called wild-type enzyme; …
**Q.** With B1 as the molecule, how does the “stoichiometry N” value [2] read?
**A.** 4
